Measurements: patent publication US20230287126A1 (BIO THERA SOLUTIONS, published 2023)

Target: T1, human PD-L1 overexpressed on CHO cells (human, UniProt Q9NZQ7 19-290)
Test: cell-based or functional assay

T1 sequence (Q9NZQ7 19-290): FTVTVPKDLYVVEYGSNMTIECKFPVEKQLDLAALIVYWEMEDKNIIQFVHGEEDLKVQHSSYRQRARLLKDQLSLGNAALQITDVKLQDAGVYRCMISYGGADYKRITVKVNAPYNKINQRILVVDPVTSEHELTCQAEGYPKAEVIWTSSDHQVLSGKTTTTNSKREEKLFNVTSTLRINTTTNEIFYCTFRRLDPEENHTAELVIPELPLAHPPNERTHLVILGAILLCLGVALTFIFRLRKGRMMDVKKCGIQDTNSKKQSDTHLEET

| Binder | EC50 (luciferase reporter luminescence, PD-1/PD-L1 Blockade Bioassay, CHO-PD-L1 + Jurkat-PD1 cells) |
| --- | --- |
| L1-R2-4 (antibody, V domains shown) VH: not shown VL: EIVLTQSPSSLSASVGDRVTITCLASQTIGTWLAWYQQKPGKSPQLLIYAASTLQSGVPSRFSGSGSGTDFTLTISSLQPEDVATYYCQQYYSTPRTFGQGTKVEIKR | 2.74 µg/mL |
| L1-R2-89 (antibody, V domains shown) VH: not shown VL: DIQMTQSPSSLSASVGDRVTITCLASQTIGTWLAWYQQKPGKSPQLLIYAASSLQSGVPSRFSGSGSGTDFTLTISSLQPEDVATYYCQQYYSTPYTFGQGTKVDIKR | 3.78 µg/mL |
| L1-R2-78 (antibody, V domains shown) VH: not shown VL: DIQMTQSPSSFSASTGDRVTITCRASQGISSYLAWYQQKPGKAPKLLIYAASRLQSGVPSRFSGSGSGTDFTLTISSLQAEDVAVYYCQQYYSTPYTFGQGTKVDIKR | 3.57 µg/mL |
| L1-R2-18 (antibody, V domains shown) VH: not shown VL: EIVLTQSPSSVSASVGDRITITCRASQGIGSWLAWYQQKPGKAPSLLIYAASSLQSGVPSRFSGSGSGTDFTLTISSLQTEDVAVYYCQQYFSTPYTFGQGTKVDIKR | 5.09 µg/mL |
| L1-R2-85 (antibody, V domains shown) VH: not shown VL: DIQMTQSPSSLSASVGDRVTIPCRASQGIGKFLAWYQQKPGKAPSLLIYAASSLQSGVPSRFSGSGSGTDFTLTISSLQTEDVAVYYCQQYFSTPYTFGQGTKVDIKR | 5.22 µg/mL |
| L1-R2-6 (antibody, V domains shown) VH: not shown VL: EIVLTQSPSSVSASVGDKLTMTCQASQDIGKHLNWYQQKPGKPPKLLIYGASNLKTGVPSRFSGTGSGTDFTLTISSLQPEDFATYYCQQSYTTPYTFGQGTRLEIKR | 3.92 µg/mL |

Target: T2, PD-L1-His-Biotin (human, UniProt Q9NZQ7 19-238, biotin-labelled (sites not given))
T2 construct: also called PD-L1-His-Biotin antigen protein
Test: flow cytometry of yeast-displayed scFv with 1 nM PD-L1-His-Biotin, Streptavidin-PE
Procedure: (§1) The yeasts described above were incubated with 1 nM of PD-L1-His-Biotin antigen protein at room temperature for 1 h, washed 3 times with PBS at pH 7.4, then incubated with Streptavidin-PE fluorescent secondary antibody at room temperature for 30 min, and washed 3 times with PBS at pH 7.4. The fresh PBS was added, and loaded on the machine for assay.

T2 sequence (Q9NZQ7 other isoform, or with tags, fused parts or gaps): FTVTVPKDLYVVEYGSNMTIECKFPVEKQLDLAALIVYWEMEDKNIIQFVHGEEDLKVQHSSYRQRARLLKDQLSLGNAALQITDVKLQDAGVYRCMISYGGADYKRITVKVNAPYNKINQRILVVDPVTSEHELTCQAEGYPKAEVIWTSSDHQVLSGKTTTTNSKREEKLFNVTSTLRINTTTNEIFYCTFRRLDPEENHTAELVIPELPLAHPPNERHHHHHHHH

| Binder | binding result |
| --- | --- |
| CP11-71 scFv (scFv, display fusion partner not described; VH at N terminus) scFv: EVQLVESGGGLVQPGGSLRLSCAASGFTFSDSWIHWVRQAPGKGLEWVGWISPYGGSTYYADSYRSRFTISADTSKNTAYLQMNSLRAEDTAVYYCARRHWPGGFDYWGQGTLVTVSSGGGGSGGGGSGGGGSEIVLTQSPSSLSASVGDRVTITCLASQTIGTWLAWYQQKPGKSPQLLIYAASTLQSGVPSRFSGSGSGTDFTLTISSLQPEDVATYYCQQYYSTPRTFGQGTKVEIK | binds |

Target: T2, PD-L1-His-Biotin
Test: flow cytometry of yeast-displayed scFv with 1 nM PD-L1-His-Biotin, Streptavidin-PE; positive rate %
Procedure: as §1

| Binder | binding result |
| --- | --- |
| CP22-44 (scFv, also called CP22-44 scFv) scFv (VH - linker - VL, VH at the N terminus): EVQLVESGGGLVQPGGSLRLSCAASGLRPADSWIHWVRQAPGKGLEWVGWISPYGGSTYYADSVKGRFTISADTSKNTAYLQMNSLRAEDTAVYYCARRHWPGGFDYWGQGTLVTVSSGGGGSGGGGSGGGGSEIVLTQSPSSLSASVGDRVTITCLASQTIGTWLAWYQQKPGKSPQLLIYAASTLQSGVPSRFSGSGSGTDFTLTISSLQPEDVATYYCQQYYSTPRTFGQGTKVEIK | binds |
| CP21-59 (scFv, also called CP21-59 scFv) scFv (VH - linker - VL, VH at the N terminus): EVQLVESGGGLVQPGGSLRLSCAASSFSLKDSWIHWVRQAPGKGLEWVGWISPYGGSTYYADSVKGRFTISADTSKNTAYLQMNSLRAEDTAVYYCARRHWPGGFDYWGQGTLVTVSSGGGGSGGGGSGGGGSEIVLTQSPSSLSASVGDRVTITCLASQTIGTWLAWYQQKPGKSPQLLIYAASTLQSGVPSRFSGSGSGTDFTLTISSLQPEDVATYYCQQYYSTPRTFGQGTKVEIK | binds |
| CP22-40 (scFv, also called CP22-40 scFv) scFv (VH - linker - VL, VH at the N terminus): EVQLVESGGGLVQPGGSLRLSCAASGFTFSDSWIHWVRQAPGKGLEWVGWISPYGGSTYYADSVKGRFTISADTSKNTAYLQMNSLRAEDTAVYYCARRHWPGGLLPWGQGTLVTVSSGGGGSGGGGSGGGGSEIVLTQSPSSLSASVGDRVTITCLASQTIGTWLAWYQQKPGKSPQLLIYAASTLQSGVPSRFSGSGSGTDFTLTISSLQPEDVATYYCQQYYSTPRTFGQGTKVEIK | binds |
| CP22-45 (scFv, also called CP22-45 scFv) scFv (VH - linker - VL, VH at the N terminus): EVQLVESGGGLVQPGGSLRLSCAASNSHLRDSWIHWVRQAPGKGLEWVGWISPYGGSTYYADSVKGRFTISADTSKNTAYLQMNSLRAEDTAVYYCARRHWPGGFDYWGQGTLVTVSSGGGGSGGGGSGGGGSEIVLTQSPSSLSASVGDRVTITCLASQTIGTWLAWYQQKPGKSPQLLIYAASTLQSGVPSRFSGSGSGTDFTLTISSLQPEDVATYYCQQYYSTPRTFGQGTKVEIK | binds |

Target: T1, human PD-L1 overexpressed on CHO cells
Test: cell-based or functional assay
Remark: another data set of the same source

| Binder | EC50 (luciferase reporter luminescence, PD-1/PD-L1 Blockade Bioassay, CHO-PD-L1 + Jurkat-PD1 cells) |
| --- | --- |
| L1-R2-4-71 (antibody, human IgG1, kappa, V domains shown) VH: EVQLVESGGGLVQPGGSLRLSCAASGFTFSDSWIHWVRQAPGKGLEWVGWISPYGGSTYYADSYRSRFTISADTSKNTAYLQMNSLRAEDTAVYYCARRHWPGGFDYWGQGTLVTVSS VL: EIVLTQSPSSLSASVGDRVTITCLASQTIGTWLAWYQQKPGKSPQLLIYAASTLQSGVPSRFSGSGSGTDFTLTISSLQPEDVATYYCQQYYSTPRTFGQGTKVEIKR | 0.382 µg/mL |
| L1-R2-4-36 (antibody, human IgG1, kappa, V domains shown) VH: EVQLVESGGGLVQPGGSLRLSCAASGFTFSDSWIHWVRQAPGKGLEWVGWISPYGGSTYYADDFRHRFTISADTSKNTAYLQMNSLRAEDTAVYYCARRHWPGGFDYWGQGTLVTVSS VL: EIVLTQSPSSLSASVGDRVTITCLASQTIGTWLAWYQQKPGKSPQLLIYAASTLQSGVPSRFSGSGSGTDFTLTISSLQPEDVATYYCQQYYSTPRTFGQGTKVEIKR | 0.148 µg/mL |
| L1-R2-4-46 (antibody, human IgG1, kappa, V domains shown) VH: EVQLVESGGGLVQPGGSLRLSCAASGFTFSDSWIHWVRQAPGKGLEWVGWISPYGGSTYYADSLGDRFTISADTSKNTAYLQMNSLRAEDTAVYYCARRHWPGGFDYWGQGTLVTVSS VL: EIVLTQSPSSLSASVGDRVTITCLASQTIGTWLAWYQQKPGKSPQLLIYAASTLQSGVPSRFSGSGSGTDFTLTISSLQPEDVATYYCQQYYSTPRTFGQGTKVEIKR | 0.224 µg/mL |
| L1-R2-4-55 (antibody, human IgG1, kappa, V domains shown) VH: EVQLVESGGGLVQPGGSLRLSCAASGFTFSDSWIHWVRQAPGKGLEWVGWISPYGGSTYYADGMRSRFTISADTSKNTAYLQMNSLRAEDTAVYYCARRHWPGGFDYWGQGTLVTVSS VL: EIVLTQSPSSLSASVGDRVTITCLASQTIGTWLAWYQQKPGKSPQLLIYAASTLQSGVPSRFSGSGSGTDFTLTISSLQPEDVATYYCQQYYSTPRTFGQGTKVEIKR | 0.401 µg/mL |
| L1-R2-4-47 (antibody, human IgG1, kappa, V domains shown) VH: EVQLVESGGGLVQPGGSLRLSCAASGFTFSDSWIHWVRQAPGKGLEWVGWISPYGGSTYYADHLSQRFTISADTSKNTAYLQMNSLRAEDTAVYYCARRHWPGGFDYWGQGTLVTVSS VL: EIVLTQSPSSLSASVGDRVTITCLASQTIGTWLAWYQQKPGKSPQLLIYAASTLQSGVPSRFSGSGSGTDFTLTISSLQPEDVATYYCQQYYSTPRTFGQGTKVEIKR | 0.389 µg/mL |
